Data published in the supplement of paper PMC12042874.
± gives the uncertainty stated by the source.

Assay: amyloid nucleation score (Sup35N fusion, yeast selection) (log enrichment); library NNK2; higher = more nucleation; inactive = no reads after selection
In short: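 After 24 hours of induction with 100 μM copper sulfate, psi-negative yeast expressing peptides of 20 random codons fused to Sup35N were grown for 7 days at 30°C on medium lacking adenine and uracil. Input and output plasmid inserts were sequenced with Illumina, and sequences with under 100 input reads were discarded. Scores for nucleation are the DiMSum log enrichment of output over input reads, centred on the mode score of non-aggregating sequences.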
In the case of NNLPTQIYYVLNSPSEVRLN, the amyloid nucleation score is reported as 0.579 ± 0.31. With KSCFWLRDI the amyloid nucleation score was -0.457 ± 0.28. With GEYINAWSLNIV the amyloid nucleation score was -0.683 ± 0.64. Work on SLNLFV yielded an amyloid nucleation score of -0.901 ± 0.78. For QTGCSITFLKFGRSAVSTVK, the amyloid nucleation score was 0.378 ± 0.27. For QVPGYIAQSKML, the amyloid nucleation score was 0.407 ± 0.43. Substance NLKLPNRSSWVLPVQYRPFD has an amyloid nucleation score of 3.28 ± 0.053. Work on FRVMQNFHQSYGHYKWVFHF yielded an amyloid nucleation score of 5.57 ± 0.057. Work on YLLSNWTNKVSWFLCVRPQS yielded an amyloid nucleation score of 2.23 ± 0.12. For YNFLWWSMKDT, the amyloid nucleation score was “inactive”. For MGCCIYCYSRIDHL, the amyloid nucleation score was 8.743 ± 0.055. In the case of LVYDKENIGRLDRRRVWRRQ, the amyloid nucleation score is reported as 0.767 ± 0.74. In the case of SLEDCYCDRVI, the amyloid nucleation score is reported as -0.528 ± 0.34. With VTFYGGAYSENYLVRCYALN the amyloid nucleation score was 4.47 ± 0.057. In the case of EFLLNMAYSSGGSWTEVFRV, the amyloid nucleation score is reported as -0.005 ± 0.63. Work on RTWCDGGCPV yielded an amyloid nucleation score of 0.653 ± 0.81. With IVLLINRYMILMGEPNHA the amyloid nucleation score was 0.17 ± 0.35. In the case of FDKRS, the amyloid nucleation score is reported as “inactive”. In the case of YAIDRRKSL, the amyloid nucleation score is reported as “inactive”. Work on YANVA yielded an amyloid nucleation score of -1.65 ± 0.75. Substance DLWTAWSRLHLDGG has an amyloid nucleation score of 0.431 ± 0.23. HNRISQRRLRLGLRGHWSRK gave an amyloid nucleation score of 0.691 ± 0.53. ICFWMACKIECCQQRTNFVS gave an amyloid nucleation score of -0.139 ± 0.26. Substance RVVLCVNLSPTSFVWSRIKE has an amyloid nucleation score of 3.45 ± 0.15. With WHMSWLK the amyloid nucleation score was 0.114 ± 0.63. In the case of YLLYYNKWGLIK, the amyloid nucleation score is reported as “inactive”. For RKVPVR, the amyloid nucleation score was “inactive”. MEPYRVKAMYPPRVIKVWFT showed an amyloid nucleation score of -0.448 ± 0.76. CSKMLTSNRVC showed an amyloid nucleation score of -0.583 ± 1.1. LACVKMFSGVFV showed an amyloid nucleation score of 0.06 ± 0.65. For YSSSKNTVVMSAKSMVRLRT, the amyloid nucleation score was 0.52 ± 0.56. Work on VSKRNDLQTSFLYMMHLALQ yielded an amyloid nucleation score of -0.536 ± 1. In the case of GTCCARAIGRYGYFNCRHRM, the amyloid nucleation score is reported as -0.017 ± 0.34. In the case of VQKTIVKLLAWLCFRGTAYC, the amyloid nucleation score is reported as 0.486 ± 0.8. With SFGGARVSLLCCFPSTSIAS the amyloid nucleation score was 9.374 ± 0.036. Substance VHYMHLSRLLKLHAEPLAFW has an amyloid nucleation score of -0.02 ± 0.55. In the case of CNCVARYGEVKEGIHVAFDY, the amyloid nucleation score is reported as -0.529 ± 0.76. NINYGSSA gave an amyloid nucleation score of -0.746 ± 0.78. With WCLSLPVRDSTVCLSTVLSG the amyloid nucleation score was 0.294 ± 0.29. With LNNYRDGLSY the amyloid nucleation score was 4.1 ± 0.064. In the case of ILYGVLTPYFHAVI, the amyloid nucleation score is reported as -0.003 ± 0.65. With FRGLYRARNGVIKRMGLGWH the amyloid nucleation score was 0.645 ± 0.47. Substance TCSGWTWRQGLLVLSCRMIL has an amyloid nucleation score of 0.287 ± 0.38. With RRLSGSFLRDYVNPWIQRSS the amyloid nucleation score was -0.277 ± 0.42. With GKFCIFASMADLMEW the amyloid nucleation score was -0.491 ± 0.42. LVSFGVYMLSSVRKECHSLN gave an amyloid nucleation score of 0.536 ± 0.49. For EGFMSFPTN, the amyloid nucleation score was “inactive”. LVMVCMVSFENHYMLGTEVL gave an amyloid nucleation score of 2.71 ± 0.14. For VWWFIYVLGVVSTDAKVSPS, the amyloid nucleation score was “inactive”. For KTYDGGFKRNRDEVGPKPGE, the amyloid nucleation score was -0.326 ± 1. Substance HLSRPGDAYTVMFT has an amyloid nucleation score of 5.845 ± 0.036. AFSLCFRYYLPRVNASG showed an amyloid nucleation score of -0.147 ± 1.1. For FRGGSCYIVVWA, the amyloid nucleation score was 6.573 ± 0.04. For DWQCRGLQYQWFGGVWDANV, the amyloid nucleation score was -0.882 ± 0.64. For VGLCSPWKHALFD, the amyloid nucleation score was 3.33 ± 0.073. In the case of MSSYDF, the amyloid nucleation score is reported as “inactive”. With RCKIRSLFSNLYPDSVFTLT the amyloid nucleation score was “inactive”. For RHVMSR, the amyloid nucleation score was 0.419 ± 0.23. In the case of IYFGMDASKIGLLYVVGYSG, the amyloid nucleation score is reported as 0.067 ± 0.63. Work on FGLSRL yielded an amyloid nucleation score of 0.713 ± 0.74. DTSVMCFGTYTWLFELFFQW showed an amyloid nucleation score of -0.334 ± 0.45. SYPVDEMMRFCLFVMDTGQL gave an amyloid nucleation score of 0.106 ± 0.54. In the case of CNFLQDNVEGVCYNRFKDCL, the amyloid nucleation score is reported as 0.601 ± 0.49. With EGWTWGGRLNKAQILTECVL the amyloid nucleation score was 1.49 ± 0.38. Substance NPLRWEWAGVWLRYTR has an amyloid nucleation score of 0.816 ± 0.58. TVIGFRDRDSWSMEMIEDHC showed an amyloid nucleation score of -0.272 ± 0.43. Substance DRNMRNLEIISVH has an amyloid nucleation score of -0.091 ± 0.23. IGCFTLR gave an amyloid nucleation score of 1.58 ± 0.088. In the case of VLGLKKSADYKS, the amyloid nucleation score is reported as -0.556 ± 0.74. With EMDNGDSGTVW the amyloid nucleation score was -0.186 ± 0.76. Substance LMFLGWASRNLVDKSTFKWI has an amyloid nucleation score of -0.843 ± 0.79. In the case of PNDHNQLQGPMLSLPPVKQV, the amyloid nucleation score is reported as -0.359 ± 0.41. SVQVMCQSWPLSPLFAPRHR gave an amyloid nucleation score of 5.92 ± 0.039. With ANWPR the amyloid nucleation score was -0.391 ± 0.79. In the case of PEFITEFQALASFEYVMLRF, the amyloid nucleation score is reported as -1.23 ± 0.41. Work on PLILGGGLLWIVC yielded an amyloid nucleation score of 0.201 ± 0.74. For SNNAI, the amyloid nucleation score was 0.476 ± 0.56. Substance YLDTHWIYY has an amyloid nucleation score of 0.056 ± 0.63. NAYFMLEILRTKWTQDSTER gave an amyloid nucleation score of -0.99 ± 0.78. With YWELDCTGYEGGMIRREWEI the amyloid nucleation score was 0.586 ± 0.81. With SYNVFDVQIVLRYIVKLFTG the amyloid nucleation score was “inactive”. For HATSMCNWAVFIECFFFGKL, the amyloid nucleation score was 5.39 ± 0.065. Substance TTAWSVEINGTMRNDDMSAS has an amyloid nucleation score of 2.2 ± 0.091. ANMCELVLLELVIELRGGLA showed an amyloid nucleation score of 3.28 ± 0.088. Work on EVHHNGM yielded an amyloid nucleation score of 0.367 ± 0.62. Substance TGCDVLRIVTRMMGKNKRYF has an amyloid nucleation score of -0.047 ± 1.1. With ALDFSRSRDKGG the amyloid nucleation score was 1.42 ± 0.23.
